Test results from patent US20090068207A1, “Compositions Containing Beta 2-Glycoprotein I-Derived Peptides for the Prevention and/or Treatment of Vascular Disease” (Vascular Biogenics Ltd., priority 2005, published 2009).

What was measured:
[1] = test system: LDL receptor deficient mice; conditions: oral administration, U.S. Ser. No. 09/806,400; cited from earlier work
lymph node cells [2] = assay: Lymph node cell proliferation (stimulation index) to oxLDL after oral administration; format: in vivo, mice
Method: Proliferation was measured by the incorporation of [^3H] thymidine into DNA during the final 12 h of incubation. The results were computed as stimulation index: the ratio of the mean cpm of the antigen to the mean background cpm obtained in the absence of the antigen.
[…] Three days after the final administration of peptides, the mice were immunized with OxLDL in incomplete Freund's adjuvant, as described in the Examples above, and lymph node cells assessed for antigen (OxLDL) stimulation of proliferation 10 days later. Proliferation was assessed by incorporation of thymidine, expressed as the Stimulation Index, as described.

[3] = test system: anti-β2GPI antibodies and antibody isotypes; assay: Serum antibody levels and isotypes (ELISA); format: in vivo, mice; conditions: oral administration, subsequently immunized with β2GPI; data not shown
Method: Detection of anti-b2GPI antibodies and antibody isotypes: β2GPI (10 μg/ml) was coated onto flat bottom 96-well ELISA plates (Nalge-Nunc, Int. Rochester, N.Y.) by overnight incubation and the assay was performed as previously described (George et al, Circulation, 1998; 15:1108-15) IgG, IgA and IgM isotypes in the sera of β2GPI tolerant and non-tolerant mice were determined by an ELISA kit (Southern Biotechnology Associates, Birmingham, Ala., USA) according to the manufacture's instructions.
None of the orally-administered antigens induced production of antiβ2GPI antibodies (data not shown).

lymph node cells [4] = assay: Cytokine secretion by lymph node cells of tolerized mice (ELISA of conditioned medium); format: in vivo
Method: IFN-γ, IL-4, IL-10 and TGF-β secretion in tolerized lymph nodes: Conditioned medium was obtained from the lymph node proliferation experiments following 48 h of culture in the presence of β2GPI.

atherosclerotic lesions = assay: Immunohistochemistry of atherosclerotic lesions (β2GPI, CD3, Mac-1); format: in vivo, mice
Source text: Immunohistochemistry of atherosclerotic lesions: Immunohistochemical staining for CD3, macrophages and β2GPI content were done on aortic sinus 5-μm-thick frozen sections. Primary antibodies used for probing were rat anti-mouse CD3, rat anti-mouse Mac-1 and a polyclonal rat anti-mouse β2GPI antibodies (George et al Circulation 2000; 102:1822-7). Slides were developed with the three amino-9-ethylcarbonasole (AEC) substrate. Sections were counterstained with hematoxylin. Spleen sections were used as a positive control. Staining in the absence of 1st or 2nd antibody was used as a negative control. β2GPI presence were evaluated by its occupancy of plaque area by computerized morphometry as described previously for VCAM-1 (George et al, Circ Res. 2000; 86:1203-10).
No effect of oral β2GPI on the number of CD3 positive cells (0-5 cells/plaque in all groups; data not shown) or macrophage (Mac-1 positive) content of the fatty streaks was observed.

[5] = test system: inguinal lymph node cells; assay: Lymph node cell proliferation (stimulation index) to sensitizing antigen β2GPI after mucosal administration; format: in vivo, mice
Method: Immunization: Subcutaneous immunization with human β2GPI: Human β2GPI was prepared from human plasma pool as described above. For immunization, human β2GPI was dissolved in PBS and mixed with equal volumes of Freund's incomplete adjuvant. Immunizations were performed by single subcutaneous injection of 10 μg antigen/mouse in 0.1 ml volume. Three days following the last mucosal administration of plaque associated molecules the mice received one immunization, and were sacrificed 10 days post immunization.
Proliferation assays: Mice were exposed to the tested antigen as described for assessment of atherosclerosis, and then immunized (one to three days following the last exposure) subcutaneously with 10 μg β2GPI in 0.1 ml PBS, prepared from purified human β2GPI as described above.
Proliferation was assayed ten days after immunization with the β2GPI as follows: Draining inguinal lymph nodes were prepared by mashing the tissues on 100 mesh screens. Red blood cells were lysed with cold sterile double distilled water (6 ml) for 30 seconds and 2 ml of NaCl 3.5% was added. Incomplete medium was added (10 ml), cells were centrifuged for 7 min at 1,700 rpm, resuspended in RPMI medium and counted in a haemocytometer at 1:20 dilution (10 μl cells+190 μl Trypan Blue). Proliferation was measured by the incorporation of [^3H] Thymidine into DNA in triplicate samples of 100 μl of the packed cells (1×10^6 cells/ml) in a 96 well microtiter plate. […] Thymidine (0.5 μCi/well) was added. After an additional 12-24 hours of incubation the cells were harvested and transferred to glass fiber filters using a cell harvester (Brandel) and counted using β-counter (Lumitron). Proliferation was measured by the incorporation of [^3H] thymidine into DNA during the final 12 h of incubation. The results are expressed as the stimulation index (S.I.): the ratio of the mean radioactivity (cpm) of the antigen to the mean background (cpm) obtained in the absence of the antigen. Standard deviation was always <10% of the mean cpm.
Tolerance induced by mucosal exposure to plaque-associated molecules may be mediated by suppression of specific immune responses to antigenic portions (epitopes) of these plaque associated molecules. Lymphocyte proliferation in response to mucosal (nasal and oral) exposure to human β2GPI was measured in […]. 9 male, 5 week old LDL-RD mice were divided into 3 groups. In group A (n=3) oral tolerance was induced with 100 μg/mouse β2GPI suspended in 0.1 ml PBS, administered by gavage, as described above, every other day for 5 days. In group B (n=3) nasal tolerance was induced with 10 μg/mouse β2GPI suspended in 10 μl PBS, administered intranasally as described above, every other day for 5 days. The mice in group C (n=3) received oral administration of 200 μl PBS every other day for 5 days. Immune reactivity was stimulated in all mice by immunization with human β2GPI as described above in the Materials and Methods section, one day after the last feeding. Ten days after the immunization lymph nodes were collected for assay of proliferation (as expressed in the Stimulation Index SI). All mice were fed normal chow-diet containing 4.5% fat by weight (0.02% cholesterol) and water ad libitum.

B1: β2GPI: beta2-glycoprotein I, species not stated at the place (human or bovine; FIG. 7 legend says bovine) (protein, UniProt P17690 20-345, looked up)
Beta-2-glycoprotein 1: GRTCPKPDELPFSTVVPLKRTYEPGEQIVFSCQPGYVSRGGIRRFTCPLTGLWPINTLKCMPRVCPFAGILENGTVRYTTFEYPNTISFSCHTGFYLKGASSAKCTEEGKWSPDLPVCAPITCPPPPIPKFASLSVYKPLAGNNSFYGSKAVFKCLPHHAMFGNDTVTCTEHGNWTQLPECREVRCPFPSRPDNGFVNHPANPVLYYKDTATFGCHETYSLDGPEEVECSKFGNWSAQPSCKASCKLSIKRATVIYEGERVAIQNKFKNGMLHGQKVSFFCKHKEKKCSYTEDAQCIDGTIEIPKCFKEHSSLAFWKTDASDVKPC
For B1, which “reduction in atherogenesis by oral tolerance” value [1] is on record?
Its value is “approximately 30%”.

And the “suppression of primary cellular response (lymph node cell proliferation) to oxLDL” value (lymph node cells [2]; oral 5 doses of 500 μg per mouse, stimulation with 20 μg/ml oxLDL, LDL-RD mice)?
The value was 74%.

What about the “reduction in Stimulation Index of OxLDL-sensitized lymph node cells” value (lymph node cells [2]; oral, 3 doses of 100 μg, LDL-RD mice immunized with OxLDL) of the same molecule?
The value was 87%.

What about the “IgM, IgA, or IgG total antibody levels and isotype distribution” value [3] of the same molecule?
Its value is “did not alter”.

And the “TGF-β levels in the conditioned medium of lymph node cells” value (lymph node cells [4]; cells from β2GPI-tolerized mice)?
The value was “below the detection threshold”.

And the “levels of IFN-γ secreted by lymph node cells” value (lymph node cells [4]; cells from β2GPI-tolerized mice, stimulation with β2GPI, mean value)?
The value was 1802 ± 588 pg/mL.

And the “Levels of IL-4 in medium relative to control animals” value (lymph node cells [4]; oral administration, immunized with β2GPI, cells incubated 48 h with β2GPI, p<0.01)?
The value was “three times higher”.

And the “IL-10 secretion relative to BSA-treated controls” value (lymph node cells [4]; oral administration, immunized with β2GPI, in-vitro priming with β2GPI, p<0.05)?
The value was 2.6 times.

What about the “content of plaque-expressed β2GPI, mean percent occupancy” value (atherosclerotic lesions; oral 500 μg/dose, LDL-RD mice, data not shown) of the same molecule?
The value was 15±5%.

And the “effect on number of CD3 positive cells or macrophage (Mac-1 positive) content of the fatty streaks” value (atherosclerotic lesions; oral administration, LDL-RD mice)?
Its value is “No effect”.

What about the “number of CD3 positive cells” value (atherosclerotic lesions; oral administration, all groups, data not shown) of the same molecule?
The value was 0-5 cells/plaque.

And the “reduction of the stimulation index of lymph node cells” value ([5]; mucosal administration to LDL-RD mice, Examples 3 and 6)?
The value was “up to 70%”.

And the “suppression of primary cellular response (lymph node cell proliferation) to β2GPI” value ([5]; oral 5 doses of 500 μg per mouse, stimulation with 2.0 μg/ml β2GPI, LDL-RD mice)?
Its value is greater than 60%.

And the “influence on primary cellular response to BSA” value ([5]; oral administration, mice immunized with BSA, results not shown)?
Its value is “did not influence”.
